In publication PMC5531254:

Legend:
PIH1D1 [1] = target: PIH1D1 (UniProt Q9NWS0); experiment: anti-FLAG co-IP, MYC blot; conditions: reference: FLAG MRE11 wild type
PIH1D1 [2] = target: PIH1D1 (UniProt Q9NWS0); experiment: GST pull-down with FLAG-purified MRE11; conditions: reference: FLAG MRE11 wild type

binding against the reference (PIH1D1 [1]; sites S558,S561)	binding against the reference (PIH1D1 [2]; sites S558,S561)	binding against the reference (PIH1D1 [1]; sites S688,S689)	binding against the reference (PIH1D1 [2]; sites S688,S689)	Substance
weaker	weaker	–	–	MRE11 (from UniProt P49959) M1 (S558A/S561A)
–	–	weaker	weaker	MRE11 (from UniProt P49959) M3 (S688A/S689A)
